We go through eleven molecules from US20180355043A1 (Janssen / Centocor, published 2018).

Where a chain is given by its changes, count along the chain named. Like-named read-outs stand apart in the source and are kept apart here.

Assay [1] addresses T1, DR4G89: Human HLA-DRA1*01:02/DRB1*04:01 ECD with hemagglutinin peptide HA_304-318 (human).
T1 construct: also called DRG89; HLA-DR4 with HA_304-318
The assay can be described thus: MSD ECL; antigen coated; mAb 0.2 µg/ml.
Description: (§1) Select generated antibodies were characterized for their binding to soluble HLA-DR, HLA-DQ or HLA-DP antigens with various peptides attached to the N-terminus of the beta chains. […] The soluble antigens of DR, DP and DQ were coated on MSD standard plates (Meso Scale Discovery, Cat. No. L15XA-3) at 5 μg/ml at 4° C. overnight. […] Binding to DR antigens was tested with four antibody concentrations ranging from 0.04-5 μg/ml. Binding to DP and DQ antigens was tested with one concentration at 5 μg/ml. After three washes, SulfoTag anti-human/NHP Kappa secondary antibody (Meso Scale Discovery, Cat. No. D20TF-6) was added and incubated for 1 hour. After another three washes, the plates were read under MSD reader (Meso Scale Discovery), and electrochemiluminescence (ECL) was measured.

For assay [2], the target named is T2, DR4G93: Human HLA-DRA1*01:02/DRB1*01:01 ECD with hemagglutinin peptide HA_304-318 (human).
T2 construct: also called HLA-DR1 with HA_304-318
The assay can be described thus: MSD ECL; antigen coated; mAb 0.2 µg/ml.
Description: as §1

Assay [3] deals with T3, DR4G119: Human HLA-DRA1*01:02/DRB1*10:01 ECD with hemagglutinin peptide HA_304-318 (human).
T3 construct: also called DRB1*10:01 HA
The assay can be described thus: MSD ECL; antigen coated; protocol of Example 3.
Description: (§2) The soluble antigens of DR, DP and DQ were coated on MSD standard plates (Meso Scale Discovery, Cat. No. L15XA-3) at 5 μg/ml at 4° C. overnight. […] Binding to DR antigens was tested with four antibody concentrations ranging from 0.04-5 μg/ml. Binding to DP and DQ antigens was tested with one concentration at 5 μg/ml. After three washes, SulfoTag anti-human/NHP Kappa secondary antibody (Meso Scale Discovery, Cat. No. D20TF-6) was added and incubated for 1 hour. After another three washes, the plates were read under MSD reader (Meso Scale Discovery), and electrochemiluminescence (ECL) was measured.
(§3) Select antibodies were further characterized for their binding to soluble HLA-DR, HLA-DQ and HLA-DP antigens in complex with various peptides which were covalently attached to the N-terminus of the beta chains.

In assay [4] the target is T4, DR4G104: Human HLA-DRA1*01:02/DRB1*04:02 ECD with hemagglutinin peptide HA_304-318 (human).
T4 construct: also called DRB1*04:02 HA
Description: MSD ECL; antigen coated; protocol of Example 3.
Description: as §2, §3

The target of assay [5] is T5, DR4G103: Human HLA-DRA1*01:02/DRB1*15:01 ECD with hemagglutinin peptide HA_304-318 (human).
T5 construct: also called DRB1*15:01 HA
Description: MSD ECL; antigen coated; protocol of Example 3.

Assay [6] deals with T1, DR4G89: Human HLA-DRA1*01:02/DRB1*04:01 …. Description: MSD ECL; antigen coated; mAb 0.2 µg/ml. This is another data set of the same source.
Assay [7] has as its target T2, DR4G93: Human HLA-DRA1*01:02/DRB1*01:01 …. Description: MSD ECL; antigen coated; mAb 0.2 µg/ml. The source holds these as a separate data set.
The target of assay [8] is T1, DR4G89: Human HLA-DRA1*01:02/DRB1*04:01 …. Description: SPR ProteOn XPR36; mAb amine-coupled, antigen as analyte; 25 °C.
Assay [9] deals with T2, DR4G93: Human HLA-DRA1*01:02/DRB1*01:01 …. The assay is described as above.
Assay [10] deals with T1, DR4G89: Human HLA-DRA1*01:02/DRB1*04:01 …. The assay can be described thus: MSD ECL; antigen coated.
Assay [11] addresses T2, DR4G93: Human HLA-DRA1*01:02/DRB1*01:01 …. The assay can be described thus: MSD ECL; antigen coated.
Assay [12] has as its target T4, DR4G104: Human …. Description: MSD ECL; antigen coated.
The target of assay [13] is T5, DR4G103: Human …. Description: MSD ECL; antigen coated.

B1: DR4B98 (antibody, human IgG2, kappa, V domains shown)
VH: QVQLVQSGAEVKKPGSSVKVSCKASGGTFKSYYIHWVRQAPGQGLEWMGGIAPIYGTAYYAQKFQGRVTITADESTSTAYMELSSLRSEDTAVYYCARDASWARAYGFDYWGQGTLVTVSS
VL: EIVLTQSPATLSLSPGERATLSCRASQSVSSYLAWYQQKPGQAPRLLIYDASNRATGIPARFSGSGSGTDFTLTISSLEPEDFAVYYCQQRSNWPLTFGQGTKVEIKR
notes: also called VH DR4H50 / VL PH9L3
With B1, the ECL signal turned out to be 775000 ECL in assay [1]; 140000 ECL in assay [2]; 94700 ECL in assay [3]; 421000 ECL in assay [4]; 34700 ECL in [5].

B2: DR4B78 (antibody, human IgG2, kappa, V domains shown)
VH: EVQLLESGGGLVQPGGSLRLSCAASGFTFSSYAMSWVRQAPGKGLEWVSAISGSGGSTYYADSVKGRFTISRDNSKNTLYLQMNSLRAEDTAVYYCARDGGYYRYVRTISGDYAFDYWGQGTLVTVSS
VL: B1 VL
notes: also called VH DR4H62 / VL PH9L3
Turning to B2, the ECL signal worked out at 979000 ECL in assay [6] and 1.06e+06 ECL in assay [7].

B3: DR4B30 (antibody, human IgG2, kappa, V domains shown)
VH: EVQLVQSGAEVKKPGESLKISCKGSGYSFTSDWIGWVRQMPGKGLEWMGIIRPGDSDTYYSPSFQGQVTISADKSISTAYLQWSSLKASDTAVYYCARESYYYVGVRYRPSYYFDYWGQGTLVTVSS
VL: B1 VL
notes: also called VH DR4H39 / VL PH9L3
B3: the ECL signal in assay [1] turned out to be 1.13e+06 ECL; in assay [2], 1.07e+06 ECL; in assay [6] it was 1.13e+06 ECL; in [7], 1.07e+06 ECL.

B4: DR4B38 (antibody, human IgG2, kappa, V domains shown)
VH: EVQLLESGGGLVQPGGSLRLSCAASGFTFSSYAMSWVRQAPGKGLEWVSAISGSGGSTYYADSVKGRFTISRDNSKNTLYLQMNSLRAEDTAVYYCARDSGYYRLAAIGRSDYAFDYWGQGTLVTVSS
VL: B1 VL
notes: also called VH DR4H56 / VL PH9L3
As to B4, the ECL signal in assay [6] turned out to be 1.22e+06 ECL; in assay [7] it was 1.12e+06 ECL.

B5: DR4B70 (antibody, human IgG2, kappa, V domains shown)
VH: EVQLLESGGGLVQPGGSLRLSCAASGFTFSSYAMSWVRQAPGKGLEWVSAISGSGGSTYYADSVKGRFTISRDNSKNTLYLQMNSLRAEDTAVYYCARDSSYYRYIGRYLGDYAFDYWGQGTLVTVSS
VL: B1 VL
notes: also called VH DR4H29 / VL PH9L3
B5: the ECL signal in assay [6] came to 888000 ECL; in assay [7] it was 972000 ECL.

B6: DR4B22 (antibody, human IgG2, kappa, V domains shown)
VH: EVQLLESGGGLVQPGGSLRLSCAASGFTFSSYAMNWVRQAPGKGLEWVSAISGSGGYTNYADSVKGRFTISRDNSKNTLYLQMNSLRAEDTAVYYCARDGGYYRYVYRYPGDYAFGYWGQGTLVTVSS
VL: B1 VL
notes: also called VH DR4H16 / VL PH9L3
On to B6, for which the figures for the ECL signal in [6] and in assay [7] were 1.01e+06 ECL and 896000 ECL, respectively.

B7: DR4B127 (antibody, human IgG2, kappa, V domains shown)
VH: B1 VH with A52R, Y55S, T57N, Y59E, W102Y, A103Y, A105N
VL: B1 VL
notes: also called VH DR4H7 / VL PH9L3
Regarding B7, the ECL signal in assay [1] was 1.03e+06 ECL; in [2], 918000 ECL; in assay [3], 1.24e+06 ECL; in assay [4], 1.27e+06 ECL; in assay [5] it was 334000 ECL. The Kd in [8] is 9.19 nM; in assay [9], 47.7 nM. For the same molecule, the values for the koff in assay [8] and in [9] were 0.000155 s⁻¹ and 0.00092 s⁻¹, respectively. The kon in assay [8] was determined as 16800 M⁻¹ s⁻¹; in assay [9] it was 19300 M⁻¹ s⁻¹.

B8: DR4B33 (antibody, human IgG2, kappa, V domains shown)
VH: EVQLVQSGAEVKKPGESLKISCKGSGYSFDSAYINWVRQMPGKGLEWMGIIRPGDSRTRYSPSFQGQVTISADKSISTAYLQWSSLKASDTAVYYCARDGYYFVGSIIYYGMDVWGQGTLVTVSS
VL: not shown
notes: also called VH DR4H58 / VL PH9L4
As for B8, the binding result in [10] and in assay [11] was “binds” in each case.

B9: DR4B4 (antibody, V domains shown)
VH: QVQLKESGPGLVAPSQSLSITCTISGFSLTSYGVHWVRQPPGKGLEWLVVIWSDGSTTYNSALKSRLSISKDNSKSQVFLKMNSLQTDDTAIYYCASHYGSTLAFASWGHGTLVTVSA
VL: DIQMTQSPASLSASVGETVTIICRASVNIYSYLAWYQQKQGKSPQLLVYNAKILAEGVPSRFSGSGSGTQFSLKINSLQPEDFGSYYCQHHYGPFTFGSGTKLEIK
notes: also called Lym-1 re-engineered as IgG2sigma
Regarding B9, the binding result in assay [12] and in [13] was “no binding” throughout. In addition, the ECL signal in assay [1] turned out to be 1.28e+06 ECL; in assay [2], 888000 ECL; in assay [3] it was 572000 ECL; in assay [4] it was 451 ECL; in assay [5], 287 ECL.

B10: DR4B6 (antibody, V domains shown)
VH: QIQLVQSGPELKKPGETVKISCKASGFTFTNYGMNWVKQAPGKGLKWMGWINTYTREPTYADDFKGRFAFSLETSASTAYLQINNLKNEDTAKYFCARDITAVVPTGFDYWGQGTTLTVSS
VL: DIQMTQSPASLSVSVGETVTITCRASENIYSNLAWYRQKQGKSPQLLVFAASNLADGVPSRFSGSGSGTQYSLKINSLQSEDFGDYYCQHFWTTPWAFGGGTNLEIK
notes: also called L243 re-engineered as IgG2sigma
For the molecule B10, the ECL signal in assay [1] was found to be 1.34e+06 ECL; in assay [2], 1.32e+06 ECL; in assay [3], 580000 ECL; in assay [4], 415000 ECL; in [5], 142000 ECL.

B11: DR4B5 (antibody, V domains shown)
VH: QVQLQESGPGLVKPSETLSLTCTVSGFSLTNYGVHWVRQSPGKGLEWIGVKWSGGSTEYNAAFISRLTISKDTSKNQVSLKLNSLTAADTAVYYCARNDRYAMDYWGQGTLVTVSS
VL: DIQMTQSPSSLSASVGDRVTITCRASENIYSYLAWYQQKPGKAPKLLVSNAKTLAEGVPSRFSGSGSGKQFTLTISSLQPEDFATYYCQHHYGNSYPFGQGTKLEIK
notes: also called apolizumab (1D10) re-engineered as IgG2sigma
For B11, the binding result in assay [12] and in assay [13] was “no binding” each time. For the same molecule, the ECL signal in [1] turned out to be 1.26e+06 ECL; in assay [2] it was 1.3e+06 ECL; in [3] it was 132000 ECL; in assay [4], 825 ECL; in assay [5] it was 329 ECL.

A word on the Kd: it is the free concentration of one partner at which half of the binding sites on the other are occupied at equilibrium, for simple one-to-one binding. The term koff denotes the rate constant with which the complex falls apart. As usually defined, the kon is the rate constant with which the complex forms. A low value points to slow association.
